# Assay: yeast display, Sf9 membrane polyspecificity reagent, FACS + sequencing; frameworks hold sequencing errors
# How it was run: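 Synthetic nanobody libraries on Saccharomyces cerevisiae BJ5465 were galactose-induced for 36–48 hours, stained 1 hour at 4 °C with 10% biotinylated, detergent-solubilized Sf9 membrane reagent and enriched on streptavidin microbeads. FACS then separated cells into low and high (top ~1%) gates by anti-HA (expression) and streptavidin (reagent binding) fluorescence. Genes were colony-PCR amplified, MiSeq 2 × 250 sequenced and CDR-length filtered. A clone's polyreactivity label is that of its gate of origin.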
row,Sequence,polyreactivity (PSR sort gate)
1,QVQLVESGGGLVQAGGSLRLSCAASGRTFYYYAMGWYRQAPGKERELVASISSSGRTYYADSVKGRFTISRDNAKNTVYLQMNSLKPEDTAVYYCAKVWSSSYYRYGYWGQGTQVTVSS,high polyreactivity
2,QVQLVESGGGLVQAGGSLRLSCAASGRNFRDYTMGWYRQAPGKERELVAAITSTGDTNYADSVKGRFTISRDNAKNTVYLQMNSLKPEDTAVYYCATQTGEEYQAPLIYDYWGQGTQVTVSS,low polyreactivity
3,QVQLVESGGGLVQAGGSLRLSCAASFRYNDMGWYRQAPGKERELDAAISSGASTSYPDSVKGRFTISRDNAKNTVYLQMNSLKPEDSAVSYCAAETYELYGLNEYDYWGQGTQVTVSS,low polyreactivity
4,QVQLVESGGGLVQAGGSLRLSCAASGSIFYRYAMGWYRQAPGKERELVAAIRSRTGRTYYADSVKGRFTISRDNAKNTVYLQMNCLNPEDTAVYYCAADKYFSARFDYWGQGTQVTVSS,high polyreactivity
5,QVQLVESGGGLVLAGGSLRLSCAASGRTYYAYTMGWYRKAPRKERELVAAISGSGSTTYYADSVKGRFTISRDNAKNTVYLQMNSLKPEDTAVFYCAADFFAGTQRTFDYWGQGTQVTVSS,high polyreactivity
6,EVQLVESGGGLVQPGGSLRLSCAASGYIYRRYRMGRYRQAPGKGREFVAAISGGSSTNYADSVKGRFTNSRDNSKNTVYLQMNSLRAEDTAVYYCAAYKIDSDPRVYWGQGTQVTVSS,low polyreactivity
7,QVQLVESGGGLVQAGGSLRLSCAASGIYAYVMGWYRQAPGTERELVAAISGTGGRTYYADSVKGRFTISRDNAKNTVYLQMNSLKPEDTAVYYCAARVKYTRYQSILDYYYWGQGTQVTVSS,high polyreactivity
8,QVQRVESGGGLVQAGGSLRLSCAGSGSTFAQNGMGWYRPAPGKERELVAAIRWNGGSTYYADSVKGRFTISRDNAKNTVYLQMNSLKPEDTAVYYCAARHPLYRVQHEDWGQGTQVTVSS,low polyreactivity
9,QVQLVESGGGLVQAGGSLRLSCAASGRTFARNAMGWYRQAPGKERELVAAISSSGGSTYYADSVKGRFTISRDNAKNTVYLQMNSLKPEDTAVYYCARYSSFTYDYWGQGTQVTVSS,high polyreactivity
10,QVQLVESGGGLVQAGGSLRLSCAASGSIFPYNVMGWYRQAPGKERELVAAISTRGGRTYYADSVKGRFTISRDNAKNTVYLQMNSLKPEDTAVYYCATAGGPYSASGYYWGQGTQVTVSS,high polyreactivity
11,QVQLVESGGGLVQAGGSLRLSCAASGSTFSFYDMGWYRQAPGKETELVDAITGSGGTTYYADSVKGRFTISRDNAKNTVYLKMNSLIPEDTAVYFCAADSLESYPDYEYDYWGQGTQVTVSS,low polyreactivity
12,QVQLVESGGGLVQAGGSLRLSCAASGFIFYYNAMGWYRHAPGKERELDAGISRSAGSTYYADSVKGRFTISRDNAKNSVYLHMNSLTPEDTAVYYCAARYLSYITGTSYYWGQVTQVTVSS,low polyreactivity
13,QVQLVESGGGLVQAGGSLRLSCAASGSIFKYFTMGWYRHAPGKERELVAYISSGGSTKYADSVKGRFTISRDNAKNTVYLQMNSLKPEDTAVYYCAKRYYYFYPDYDYWGQGTQVTVSS,high polyreactivity
14,QVQLVESGGGLVQAGGSLRLSSAASGRIFSDNVMGWYRQAPGKERELVATITSTGGTYYADSVKGRFTISRDNAKNTVYLQMNSLKPEDTAVYYCNKATLADWWLYPRYNYWGQGTQVTVSS,low polyreactivity
15,QVQLVESGGGLVQAGGSLRLSCAASGRIFKINAMGWYRQAPGKERELVAAITRSGGTTYYADSVMGRFTISRDHAKNTVYLQMNSLKPEDTAVYYCAARVVQYPYYYWGQGTQVTVSS,high polyreactivity
16,QVQLVESGGGLVQAGGSLRLSCAASGRIFTFNAMGWYRQAPGKERELVAAGSTYYADSVKGRFTISRDNAKNTVYLQMNSLKPEDTAVYYCAVEDLGSEGWGWYKEMDYWGQGTQVTVSS,low polyreactivity
17,QDQLVESGGGLVQAGGSLRLSCAASGSIFVYNTMGWYRQAPGKERELVAAISSSGGSTYYADSVKGRFTISRDNAKNTVYLQMNSLKPEDTAVYYCAAVNGYQYAPYYYNGYDFWGQGTQVTVSS,low polyreactivity
18,QVQLVESGGGLFQAGGILRLSCAASGFTFERNDMGWYRQAPGKERELVATISQSGTNTYYADSVKGRFTISRDNAKNTVYVQMNSMKPEDTAVYYCNARYIFYRYDYWGHGTQVTVSS,low polyreactivity
19,QVQLVESGGGLVQSGGSLRLSCAASGLTFMVYAMGWYRQAPGKEREFVAAITFSGGRTYYADSVKGRFTISRDNAKNTVYLQMNSLKPEDTAVYYCNAEAWSLGYDYWGQGTQVTVSS,low polyreactivity
20,QVQLVESGGGLVQAGGSLRLICAASGRIYWTYAMGWYRQAPGKERDLVAAISSGGSTNYADSVKGRFTISRDNAKNTVYLQMNSLKPEDTAVYYCAADRWYREYDYWGQGTQVTVSS,low polyreactivity
21,QVQLEESGGGLDQAGGSLRLSCAASGLILDYNDIGGYRQAAGQERELVASITGGGSTYYADSVKGRFRISRDNAKNTVYLQMNSLKPQDTSVYSCNADPVGVYCFDLDYWGQGTQVTVSS,low polyreactivity
22,QGQLVESGGGLVQEGGSLRLSCAASGSTFKRYVMGWYRQAPGKERELVAAITWSGTRTYYADSVKGRFTISRDNAKNTVYLQMNSLKPVDTAVYYCAARLYGGYDWGQGTQVTVSS,high polyreactivity

row,Sequence,polyreactivity (PSR sort gate)
1,QVQLVESGGGLVQAGGSLRLSCAASGRIYVKNAMGWYRPAPGKERELVAAINWRGTSTYYADSVKGRFTISRDNAKNTVYLQMKSLKPEDTAVYYCNRVLGYPYGVDYWGQGTQVTVSS,high polyreactivity
2,QVQLVESGGGLVQAGGSLRLSCAASGITIPVYMGWYRQAPGKERELVASISTIGGTTYYADSVKGRFTISRDNAKNTVYLQMNSLKPEDTAVYYCAADHPWSWYDYWGQGTQVTVSS,low polyreactivity
3,QVQLQESGGDLVQAGGSLRLSCAASGTIYGLTSMGSYRQRPGKEREFVAAITDGGNTNYADSVKGRFTISRDNAKNTVYLQMISLKPDETAVYYWAVLFSDDAYYAYWGQGTQVTVSS,low polyreactivity
4,QVQLVESGGGLVQAGGSLRLSCAASGSTFSAYAMGWYRQAPGKERELVAAITRSGGSTYYADSVKGRFTISRDNAKNTVYLQMNSLKPEDTAVYYCAVRGYLLYYPPYKYEYWGQGTQVTVSS,high polyreactivity
5,QVQHVESGVGLDQAGGSLRLSCAASGSIFYWNAMGWYRQAPGKEREFVATITITTSTNYADSVKGRFTISRDNAKNPVNLQMNSLKPEDTAVYYCNAGAPYRYLDEYNYWGQGTKVTVSS,low polyreactivity
6,QVQLVESGGGLVQAGGSLRLSCAASGIILYYYAMGWYRQAPGKERELVAAINWSGGSTSYADSVKGRFTISRDNAKNTVYLQMNSLKPEDTAVYYCAARLGSWHYQVWNYKYEYWGQGTQVTVSS,high polyreactivity
7,QVQLVESGGGLVQAGGSLRLSCAASGSIFASYAMGWYRQAPGKERELVAAISRSGTSTRYADSVKGRFTISRDNAKNTVYLLMNSLKPEDTAVYYCAARWYVFFRKYDYWGQGTQVTVSS,high polyreactivity
8,QVQLVESGGGLVQAGGSLRLSCAASGFTVYGYTMGWYREAPGKERELVAAITSGDSTYYADSVKGRVTISRDIAQNTDYLQMHTLKPEETAVYYCATDWDVEYAWTEYYYWGQGTQVTVSS,high polyreactivity
9,QVQLVESGGGLVQAGGSLRLSCAASGSTFGIYAMGWYRQAPGKERELVAAISSGGSTNYADSVKGRFTISRDNAKNTVYLQMNSLKPEDTAVYYCAVESVYEYGGYVDSAYDYWGQGTQLTVSS,low polyreactivity
10,QVQLVESGGGLVQAGGSLRLSCAASGNIFAYYALGWYRQAPGKEREFVAAIRSSGVSTYYADSVKGRFTISRDNAKNTVYLQMNSLKPEDTAVYYCAADSITGGWLIVSPPYNYTYDYWGQGTQVTVSS,low polyreactivity
11,QVQLVESGGGLVQAGGSLRLSCAASGGTFSYYAMGWYRQAPGKERELFASISSGGSTYYADSVKGRFTISRDNAKNTVYLQMNSLKPEDTAVYYCNAEARSRRYRYDYWGQGTQVTVSS,high polyreactivity
12,QVQLVESGGGLVQAGGSLRLSCAASGSTFYDYAMGWYRQAPGKERELVAAITSGGSTDYADSVKGRFTISRDNAKNTVYLQMNSLKPEDTAVYYCATDTDSNYISHQFVWYDYWGQGTQVTVSS,low polyreactivity
13,QVQLVESAGGLVQAGGSLRLSCAASGSTFQDYVMGWYRQAPGKERELVAAISRSGGSTYYADSVKGRFTISRDNAKNTVYLQMNSLKPEDTAVYYCAAQQYTYFVPFLTYGEYDYWGQGTQVTVSS,low polyreactivity
14,QVQLVESGGGLVQAGGSLRLSCAASGRIYLRYTMGWYRQAPGKERELVAAISARTTGTYYADSVKGRFTISRDNAKNTVYLQMKSLKPEDTAVYYCASKSKLSRDLYSWGQGTQVTVSS,low polyreactivity
15,QVKLVESGGGLVQAGGSLRLSFDASGSTFYFYAMGLYRQDPGKETEFFAAITQSGGSTNYADSVKGRFTISRDKAKNTVYLQMNSLKPEDTAVYYCSAREWRSFDYWGQGTQVTVSS,low polyreactivity
16,HVQLVESGGGLVQAGGSLRLSCAASGIIFITNAMGWYRQAPGKERELVAAISSTVSTYYADSVKGRFTISRDKAKNTVYLQMNRLKPADTAVYYCAAEWGLTQGESIYDYWGQGTQVTVSS,low polyreactivity
17,QVQLVESGGGLVQAGGSLRLSCAASGSIFSYYAMGWYRQAPGKERELVAAISYSGSDTYYADSVKGRFTISRDNAKNTVSFQMNSLKPEDTAVYYCAAEDPSYSYHYWGQGTQVTVSS,low polyreactivity
18,QVQLVESGGGLVQAGGSLRLSCAASGINFAAYVMGWYRQAPGKERELFAAISKSGGRTYYADSVKGRFTISRDNAKNTVYLQMNSLKPEDTAVYYCAASYTYFSFGIGTDVRYGYWGQGTQVTVSS,high polyreactivity
19,QVQLVESGGGLVQAGGSLRLSCAASGSIMSYYAMGWYRQAPGQVREFVAAISSGGGTYYADSVKGRFTISRDNAKNTVYLQMNSLNAEDTAVFYCNADHASSIQFEYWGQGTQVTVSS,low polyreactivity
20,QVQHVESGGGLVQAGGRLRLSCAASGRTFPRYAIGLYRQAPGKERELVAAISVLAGITYYADSVKGRFTISRDNAKNTVYLQMNSLKPEDTAVYYCAKDHWTTSYDEGDYWGQGPQVTVSS,low polyreactivity
21,QVQLVESGGGLVQAGGSLRLSCAASGITFAYYAKGWYRQAPGKEREFVAAINGGGSTNYADSVKGRFSISRDNAKNTVYLQMNSLKAEDTAVYFCNARRAYRAWYYPYDYWGQGTQVTVSS,high polyreactivity

# — the nanobody polyreactivity screen of Harvey et al. (2022)
